From patent US20220119534A1 (DRAGONFLY THERAPEUTICS, published 2022)
Each block holds one binder with its values, some of them ahead of it.

Experiments:
[1] = target: T1, human CLEC12A expressed on cells (human, UniProt Q5QGZ9 1-265); experiment: flow cytometry on RMA-hCLEC12A cells
T1 construct: Transduced isogenic cells or endogenous expression on AML cells; also called RMA-hCLEC12A; Ba/F3-hCLEC12A
T1 sequence: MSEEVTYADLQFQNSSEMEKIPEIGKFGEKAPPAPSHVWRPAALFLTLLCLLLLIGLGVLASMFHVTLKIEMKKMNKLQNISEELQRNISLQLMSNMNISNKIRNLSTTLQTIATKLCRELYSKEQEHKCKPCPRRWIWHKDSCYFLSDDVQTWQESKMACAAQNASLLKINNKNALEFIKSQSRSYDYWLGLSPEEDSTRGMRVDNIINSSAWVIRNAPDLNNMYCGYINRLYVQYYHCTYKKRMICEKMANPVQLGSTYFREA

[2] = target: T1, human CLEC12A expressed on cells; experiment: flow cytometry, hCLEC12A+ Ba/F3
[3] = target: T2, recombinant human CLEC12A-His (human, UniProt Q5QGZ9 65-265); experiment: SPR screening
T2 construct: also called hCLEC12A-His; hCLEC12A
T2 sequence: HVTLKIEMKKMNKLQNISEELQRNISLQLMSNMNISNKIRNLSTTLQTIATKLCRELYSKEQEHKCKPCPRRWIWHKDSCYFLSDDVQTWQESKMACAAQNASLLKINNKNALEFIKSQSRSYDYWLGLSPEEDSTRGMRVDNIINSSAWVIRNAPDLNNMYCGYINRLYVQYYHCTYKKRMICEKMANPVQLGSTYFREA

[4] = target: T2, recombinant human CLEC12A-His; experiment: SPR
de-sialylated hCLEC12A = target: T3, de-sialylated hCLEC12A (human, UniProt Q5QGZ9 65-265, terminal sialic acids removed (neuraminidase)); experiment: SPR
T3 construct: also called De-sialylated CLEC12A
T3 sequence: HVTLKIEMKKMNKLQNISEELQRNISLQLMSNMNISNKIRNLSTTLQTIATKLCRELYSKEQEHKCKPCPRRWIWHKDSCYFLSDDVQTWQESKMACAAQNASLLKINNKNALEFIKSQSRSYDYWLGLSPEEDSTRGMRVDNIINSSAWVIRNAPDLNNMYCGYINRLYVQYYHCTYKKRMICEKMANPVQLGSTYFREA

de-glycosylated hCLEC12A = target: T4, de-glycosylated hCLEC12A (human, UniProt Q5QGZ9 65-265, N-linked glycans removed (PNGase F)); experiment: SPR
T4 construct: also called PNGase-treated hCLEC12A; De-glycosylated CLEC12A
T4 sequence: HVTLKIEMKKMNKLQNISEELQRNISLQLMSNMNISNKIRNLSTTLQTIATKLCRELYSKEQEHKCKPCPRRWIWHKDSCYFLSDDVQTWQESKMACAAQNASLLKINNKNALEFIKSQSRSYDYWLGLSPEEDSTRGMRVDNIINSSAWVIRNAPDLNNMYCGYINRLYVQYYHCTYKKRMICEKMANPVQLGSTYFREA

[5] = target: T5, Human CLEC12A expressed on cells (Ba/F3-hCLEC12A, PL21, HL60) (human, UniProt Q5QGZ9 1-265); experiment: cell-based or functional assay
T5 sequence: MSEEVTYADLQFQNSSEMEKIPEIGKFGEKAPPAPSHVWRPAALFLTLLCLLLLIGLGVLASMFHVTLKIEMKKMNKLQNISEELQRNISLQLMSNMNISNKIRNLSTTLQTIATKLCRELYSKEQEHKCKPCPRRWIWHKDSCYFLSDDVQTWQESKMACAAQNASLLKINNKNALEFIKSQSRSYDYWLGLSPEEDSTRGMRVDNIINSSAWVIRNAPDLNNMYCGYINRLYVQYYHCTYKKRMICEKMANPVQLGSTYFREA

[6] = target: T5, Human CLEC12A expressed on cells …; experiment: cell-based or functional assay; remark: listed apart in the source

B3: Murine F3'-9F11 (other)
VH: EVQLQESGGGLVQPGGSRKLSCAASGFTFNSFGMHWVRQAPEKGLEWVAFISSGSTSIYYANTVKGRFTISRDNPKNTLFLQMTSLRSEDTAMYYCARDGYPTGGAMDYWGQGTSVTVSS
VL: DIKMTQSPSSMYASLGERVTITCKASQDIYNYLSWFQLKPGKSPRPLIYRANILVSGVPSKFSGSGSGQDYSLTINSLEYEDLGIYYCLQFDAFPFTFGSGTKLEIK
notes: the text calls it clone 9F11.B7; F3' construct (scFv order, Fc, NKG2D Fab) not spelled out
Kd [4]: 0.96 nM
koff [4]: 0.00111 s⁻¹
kon [4]: 1.15e+06 M⁻¹ s⁻¹
Kd (de-sialylated hCLEC12A): 0.62 nM
koff (de-sialylated hCLEC12A): 0.00098 s⁻¹
kon (de-sialylated hCLEC12A): 1.58e+06 M⁻¹ s⁻¹
Kd (de-glycosylated hCLEC12A): 0.34 nM
koff (de-glycosylated hCLEC12A): 0.000374 s⁻¹
kon (de-glycosylated hCLEC12A): 1.11e+06 M⁻¹ s⁻¹

B4: AB0305 mAb (Humanized 1739 anti-CLEC12A mAb) (antibody, V domains shown)
VH: QLQLQESGPGLVKPSETLSLTCTVSGFSLTNYGLHWIRQPPGKGLEWIGVIWVGGATDYNPSLKSRVTISVDTSKNQFSLKLSSVQAADTAVYYCAKGDYGDTLDYWGQGTLVTVSS
VL: DIQMTQSPSSLSASVGDRVTITCHASQNINFWLSWYQQKPGKAPKLLIYEASNLHTGVPSRFSGSGSGTDFTLTISSLQPEDFATYYCQQSHSYPLTFGSGTKLEIK
% Max, ADCP activity of M0 macrophages against PL21 cells [5]: 10%
EC50, ADCP activity of M0 macrophages against PL21 cells [5]: 0.02 nM
EC50, primary NK mediated cytotoxic killing of PL21 cells [6]: 1.85 nM

More lines, now with the values ahead:

EC50 (read off the curve) [1]: ~3 nM
EC50 [2]: 14.3 nM
Max MFI [2]: 39700 MFI
B1: hcFAE-A49.CLL1-Merus (bispecific antibody, V domains shown)
VH 1: EVQLVQSGAEVKKPGASVKVSCKASGYTFTSYYMHWVRQAPGQGLEWMGIINPSGGSTSYAQKFQGRVTMTRDTSTSTVYMELSSLRSEDTAVYYCARGNYGDEFDYWGQGTLVTVSS
VL 1: not shown
VH 2: EVQLVESGGGLVKPGGSLRLSCAASGFTFSSYSMNWVRQAPGKGLEWVSSISSSSSYIYYADSVKGRFTISRDNAKNSLYLQMNSLRAEDTAVYYCARGAPMGAAAGWFDPWGQGTLVTVSS
VL 2: DIQMTQSPSSVSASVGDRVTITCRASQGISSWLAWYQQKPGKAPKLLIYAASSLQSGVPSRFSGSGSGTDFTLTISSLQPEDFATYYCQQGVSFPRTFGGGTKVEIK
notes: Duobody TriNKET: CLEC12A Fab of Merus CLL1 and NKG2D Fab A49; also called hcFAE-A49.CLL-Merus; control CLEC12A-TriNKET

Kd [3]: 1.07 nM
koff [3]: 0.00102 s⁻¹
kon [3]: 950000 M⁻¹ s⁻¹
B2: m9F11-hIgG1 (antibody, V domains shown)
VH: EVQLQESGGGLVQPGGSRKLSCAASGFTFNSFGMHWVRQAPEKGLEWVAFISSGSTSIYYANTVKGRFTISRDNPKNTLFLQMTSLRSEDTAMYYCARDGYPTGGAMDYWGQGTSVTVSS
VL: DIKMTQSPSSMYASLGERVTITCKASQDIYNYLSWFQLKPGKSPRPLIYRANILVSGVPSKFSGSGSGQDYSLTINSLEYEDLGIYYCLQFDAFPFTFGSGTKLEIK
notes: also called chimeric parent mouse 9F11.B7 mAb
